Experimental data reported in PMC2173270 (The Journal of Cell Biology, 2002).
No end group written: not given here. *: point of attachment. Biotin = O=C1N[C@H]2[C@H](CS[C@H]2CCCCC(=O)*)N1

T1: GS15 (endogenous) (rat (endogenous in rat liver Golgi …, UniProt O35152 1-111))
T1 sequence: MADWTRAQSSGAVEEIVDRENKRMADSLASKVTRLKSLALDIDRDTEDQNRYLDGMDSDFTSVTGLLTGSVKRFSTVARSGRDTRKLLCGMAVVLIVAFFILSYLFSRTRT

T2: p115 (rat, UniProt P41542 1-959)
T2 sequence: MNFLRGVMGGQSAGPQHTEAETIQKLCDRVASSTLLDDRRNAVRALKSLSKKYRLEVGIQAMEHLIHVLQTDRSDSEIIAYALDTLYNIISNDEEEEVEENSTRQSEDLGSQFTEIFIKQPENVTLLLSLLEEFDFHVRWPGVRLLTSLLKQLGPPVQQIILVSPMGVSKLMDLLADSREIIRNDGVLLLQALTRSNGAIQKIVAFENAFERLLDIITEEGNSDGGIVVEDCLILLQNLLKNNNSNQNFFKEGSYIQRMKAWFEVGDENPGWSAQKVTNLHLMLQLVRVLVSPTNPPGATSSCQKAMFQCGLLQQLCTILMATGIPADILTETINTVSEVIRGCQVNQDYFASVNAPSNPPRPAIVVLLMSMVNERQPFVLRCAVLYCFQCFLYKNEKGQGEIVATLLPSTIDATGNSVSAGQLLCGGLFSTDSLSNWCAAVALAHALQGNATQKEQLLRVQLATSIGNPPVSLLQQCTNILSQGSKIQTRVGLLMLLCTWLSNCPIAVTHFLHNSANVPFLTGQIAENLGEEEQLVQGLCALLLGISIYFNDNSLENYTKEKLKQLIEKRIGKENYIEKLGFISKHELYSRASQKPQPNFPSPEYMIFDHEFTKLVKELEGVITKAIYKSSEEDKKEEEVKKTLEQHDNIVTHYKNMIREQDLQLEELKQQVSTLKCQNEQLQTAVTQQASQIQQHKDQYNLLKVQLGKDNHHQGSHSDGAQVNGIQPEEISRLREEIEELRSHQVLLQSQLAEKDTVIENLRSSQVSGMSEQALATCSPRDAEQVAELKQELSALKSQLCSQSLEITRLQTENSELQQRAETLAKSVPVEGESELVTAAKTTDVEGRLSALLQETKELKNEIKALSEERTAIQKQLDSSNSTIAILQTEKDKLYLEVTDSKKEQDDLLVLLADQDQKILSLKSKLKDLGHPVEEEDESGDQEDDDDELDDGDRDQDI

B1: GOS-28 (endogenous) (natural protein)
chain: MAAGTSNYWEDLRKQARQLENELDLKLVSFSKLCTSYSHSSARDGGRDRYSSDTTPLLNGSSQDRMFETMAIEIEQLLARLTGVNDKMAEYTHSAGVPSLNAALMHTLQRHRDILQDYTHEFHKTKANFMAIRERENLMGSVRKDIESYKSGSGVNNRRTELFLKEHDHLRNSDRLIEETISIAMATKENMTSQRGMLKSIHSKMNTLANRFPAVNSLIQRINLRKRRDSLILGGVIGICTILLLLYAFH
B2: His–GOS-28 (domain or fragment)
chain: AAGTSNYWEDLRKQARQLENELDLKLVSFSKLCTSYSHSSARDGGRDRYSSDTTPLLNGSSQDRMFETMAIEIEQLLARLTGVNDKMAEYTHSAGVPSLNAALMHTLQRHRDILQDYTHEFHKTKANFMAIRERENLMGSVRKDIESYKSGSGVNNRRTELFLKEHDHLRNSDRLIEETISIAMATKENMTSQRGMLKSIHSKMNTLANRFPAVNSLIQRINLRKRRD
B3: CC4 (aa 843–930 of rat p115) (peptide)
peptide: TTDVEGRLSALLQETKELKNEIKALSEERTAIQKQLDSSNSTIAILQTEKDKLYLEVTDSKKEQDDLLVLLADQDQKILSLKSKLKDL
modifications: NH2-terminally biotinylated
B4: CC1 (aa 637–699 of rat p115) (peptide)
peptide: Biotin-KEEEVKKTLEQHDNIVTHYKNMIREQDLQLEELKQQVSTLKCQNEQLQTAVTQQASQIQQHKD
B5: Ykt6p (endogenous) (natural protein)
chain: MKLYSLSVFYKGEPKAVLLKAAYDVSSFSFFQRSSVQEFMTFTSQLIVERSAKGSRASVKEQEYLCHVYVRSDSLAGVVIADSEYPSRVAFTLLEKVLDEFSKQVDRIDWPVGSPATIHYTALDGHLSRYQNPREADPMSKVQAELDETKIILHNTMESLLERGEKLDDLVSKSEVLGTQSKAFYKTARKQNSCCAIM
B6: GST–syntaxin-5 (domain or fragment)
chain: MIPRKRYGSKNTDQGVYLGLSKTQVLSPATAINSSSDIAPLPTPVALVPSPPDTMSCRDRTQEFLSACKSLQSRQNGIQTNKPALHATRQCSEFTLMARRIGKDLSNTFAKLEKLTILAKRKSLFDDKAVEIEELTYIIKQDINSLNKQIAQLQDFVRAKGSQSGRHLQTHSNTIVVSLQSKLASMSNDFKSVLEVRTENLKQQRNRREQFSRAPVSALPLAPNNLGGGPIVLGGESRASRDVAIDMMDPRTSQQLQLIDEQDSYIQSRADTMQNIESTIVELGSIFQQLAHMVKEQEETIQRIDENVLGAQLDVEAAHSEILKYFQSVTSNR
B7: syntaxin-5 (endogenous) (natural protein)
chain: MIPRKRYGSKNTDQGVYLGLSKTQVLSPATAINSSSDIAPLPTPVALVPSPPDTMSCRDRTQEFLSACKSLQSRQNGIQTNKPALHATRQCSEFTLMARRIGKDLSNTFAKLEKLTILAKRKSLFDDKAVEIEELTYIIKQDINSLNKQIAQLQDFVRAKGSQSGRHLQTHSNTIVVSLQSKLASMSNDFKSVLEVRTENLKQQRNRREQFSRAPVSALPLAPNNLGGGPIVLGGESRASRDVAIDMMDPRTSQQLQLIDEQDSYIQSRADTMQNIESTIVELGSIFQQLAHMVKEQEETIQRIDENVLGAQLDVEAAHSEILKYFQSVTSNRWLMVKIFLILIVFFIIFVVFLA

How the values were obtained:
GS15 (endogenous) = molecular target: T1, GS15 (endogenous); test: co-IP
[1] = molecular target: the molecule itself; test: SEC + other: laser light scattering + native gel or EMSA
GST–syntaxin-5 = molecular target: B6; test: pull-down
p115 = molecular target: T2, p115; test: pull-down

Row | Binder | fold enhancement of complex formation by p115 against no p115 (GS15 (endogenous)) [fold] | percent dimeric [1] [%] | percent tetrameric [1] [%] | also measured
1 | B1 | ~5 | – | – | –
2 | Biotin-DAEQVAELKQELSALKSQLCSQSLEITRLQTENSELQQRAETLAK [CC3 (aa 783–827 of rat p115)] | – | ~20 | ~10 | –
3 | B2 | – | – | – | fold stimulation of the interaction by p115 against no p115 (GST–syntaxin-5): 4 fold; Kd (p115): 1500 nM
4 | B3 | – | ~20 | ~10 | –
5 | B4 | – | ~20 | ~10 | –
6 | B5 | ~5 | – | – | –
7 | B6 | – | – | – | Kd (p115): 1800 nM
8 | B7 | ~5 | – | – | –
9 | Biotin-QPEEISRLREEIEELRSHQVLLQSQLAEKDTVIENLRS [CC2 (aa 728–765 of rat p115)] | – | ~20 | ~10 | –
